The values below come from US20050142137A1 (CURAGEN, published 2005).

Residue numbers refer to the chain shown, from its start. Bounds are passed on as bounds.

The term Kd denotes the concentration at which binding is half-saturated.

Assay [1] has as its target T1, recombinant human SLPI (Secretory leukocyte protease inhibitor), R&D Systems Cat#260-PI (human, UniProt P03973 25-131, biotinylated in the streptavidin-plate ELISAs and on SRBCs).
T1 construct: Bought protein; also called biotinylated SLPI; B-Cur12
The assay can be described thus: limiting antigen ELISA, biotinylated SLPI coated at 100 ng/ml. On the procedure: (§1) The limiting antigen analysis is a method that affinity ranks the antigen-specific antibodies in B cell culture supernatants. […] Each plate was washed 5 times with dH₂O, before 46 μl/well of 1% milk in PBS with 0.05% sodium azide was added, followed by 4 μl/well of B cell supernatant. After 22 hours at RT on a shaker, the plates were again washed 5 times with dH₂O. Goat anti-Human (Fc)-HRP at 1 μg/ml, 50 μl/well was added. After 1 hour at RT, the plates were again washed 5 times with dH₂O and 50 μl/well of TMB substrate was added. The reaction was stopped by the addition of 50 μl of 1M phosphoric acid to each well and the plates were read at wavelength 450 nm. 42C1, 43H7, 35F1 and 9G12 were chosen for further evaluation and cloning.
On the technique in general: An ELISA detects its analyte on a solid surface through an enzyme-linked reagent.

For assay [2], the target named is T1, recombinant human SLPI (Secretory …). The assay can be described thus: BIAcore 2000, 25 C, antibody captured on goat anti-human surface, SLPI injected. On the procedure:
BiaCore® analysis was used to determine binding affinity of anti-SLPI antibody to SLPI antigen. The analysis was performed at 25° C. using a BiaCore® 2000 biosensor equipped with a research-grade CM5 sensor chip. A high-density goat α human antibody surface over a CM5 BiaCore® chip was prepared using routine amine coupling. Antibody supernatents were diluted to ˜5 μg/mL in HBS-P running buffer containing 100 μg/mL BSA and 10 mg/mL carboxymethyldextran. The antibodies were then captured individually on a separate surface using a 2 minute contact time, and a 5 minute wash for stabilization of antibody baseline.
SLPI antigen was injected over each surface for 75 seconds, followed by a 3-minute dissociation. Double-referenced binding data were obtained by subtracting the signal from a control flow cell and subtracting the baseline drift of a buffer inject just prior to the SLPI injection. SLPI binding data for each mAb were normalized for the amount of mAb captured on each surface. The normalized, drift-corrected responses were also measured.
A general note: SPR reads the build-up and loss of mass on a sensor chip optically.

For assay [3] the target is unchanged. Description: limiting antigen ELISA, biotinylated SLPI coated at 400 ng/ml. The protocol:
as §1

Assay [4] shares this target. The assay can be described thus: ELISA, SLPI (60 ng/ml) + supernatant on plate-bound chymotrypsin. The protocol:
Antibodies were screened for ability to inhibit SLPI activity. The assay involves assessing SLPI binding to chymotrypsin and resultant inhibition of chymotrypsin enzyme activity in the presence or absence of antibody. Biotinylated bovine chymotrypsin (5 μg/ml) was incubated with streptavidin coated plates for 30 minutes at RT. Each plate was washed 5 times with dH₂O prior to addition of an anti-SLPI antibody mixture (30 μl of SLPI reconstituted in 100 mM Tris, 10 mM CaCl₂ and 0.1% HSA pH 7.5 mixed with 20 μl of monoclonal antibody supernatant being tested; final concentration SLPI 60 ng/ml; incubated for 1 hour at RT) and plates were incubated for 1 hour. Plates were washed 5 times with dH₂O then incubated with 50 μl of a polyclonal Goat anti-SLPI (purchased from R&D) at 1 μg/ml/well for 1 hour. After washing, 50 μl of a rabbit anti-goat HRP-conjugated antibody/well was added and incubated for 1 hour. After washing, 50 μl of TMB substrate/well was added.. The reaction was stopped by adding of 50 μl of 1M phosphoric acid/well. Plates were read at wavelength 450 nm.

For assay [5] the target is unchanged. The assay can be described thus: ELISA, B cell supernatant on biotinylated SLPI, rescreen.
Assay [6] has the same target. The assay can be described thus: limiting antigen ELISA, biotinylated SLPI coated at 50 ng/ml. On the procedure:
as §1

For assay [7] the target is unchanged. The assay can be described thus: limiting antigen ELISA, biotinylated SLPI coated at 800 ng/ml. On the procedure: as §1
The target is the same in assay [8]. Description: ELISA, recombinant antibody in HEK 293 supernatant titrated 1:2 on biotinylated human SLPI. The text has this: After isolation of single plasma cells, mRNA was extracted and reverse transcriptase PCR was used to generate cDNA. The cDNA encoding the variable heavy and light chains was specifically amplified using polymerase chain reaction. The variable heavy chain region was cloned into an IgG2 expression vector, generated by cloning the constant domain of human IgG2 into the multiple cloning site of pcDNA3.1+/Hygro (Invitrogen, Burlington, ON). The variable light chain region was cloned into an IgK expression vector, generated by cloning the constant domain of human IgK into the multiple cloning site of pcDNA3.1+/Neo (Invitrogen, Burlington, ON). The heavy chain and the light chain expression vectors were then co-lipofected into a 60 mm dish of 70% confluent human embryonic kidney 293 (HEK 293) cells and the transfected cells were incubated for 24 hours to secrete recombinant antibody. Supernatant (3 mL) was harvested from the HEK 293 cells and the secretion of intact antibody and binding to SLPI tested ELISA. To detection secretion, 96 well plates were coated with 2 μg/mL of goat anti-human IgG H+L overnight. For detection of SLPI binders, streptavidin plates were coated with biotinylated human SLPI (0.5 μg/mL) overnight at four degrees. The plates were washed five times with dH₂O. Recombinant antibodies titrated 1:2 for 7 wells from the undiluted minilipofection supernatant were added, incubated and the plates were washed five times with dH₂O. Goat anti-human IgG Fc-specific HRP-conjugated antibody was added at a final concentration of 1 μg/mL, incubated for 1 hour at RT and the plates were washed as before. Plates were developed with the addition of TMB for 30 minutes and the reaction was stopped by the addition of 1 M phosphoric acid. Each ELISA plate was analyzed to determine the optical density of each well at 450 nm.

T1 sequence (P03973 25-131): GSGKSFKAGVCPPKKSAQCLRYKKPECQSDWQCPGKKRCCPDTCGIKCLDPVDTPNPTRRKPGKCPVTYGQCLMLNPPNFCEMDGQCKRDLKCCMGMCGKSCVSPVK

B1: 43H7 (antibody, human IgG2, V domains shown)
VH: QVQLVESGGGVVQPGRSLRLSCAASGFTFSTYGMHWVRQAPGKGLEWVTFIWYDGRNKYYADSVKGRFTVSRDNSKNTLYLQMNSLRAEDTAVYYCARGDDYGDYHPHYYYYGLDVWGQGTTVTVSS
VL: DIVMTQTPLSLSVTPGQPASISCKSSQSLLDSDGKTYLYWYLQKPGQPPQLLIYEVSNRFSGVPDRFSGSGSGTDFTLKISRVEAEDVAYYYCMQSIQLPWTFGQGTKVEIK
notes: Fully human, XenoMouse XMG2; also called #11; Cur12.1 PL43 H7
Take B1: the OD in assay [1] amounted to 2.6 OD450; in assay [3], 4.02 OD450; in assay [6] it was 1.19 OD450; in assay [7], 4.1 OD450. In assay [2], the Kd was 0.104 nM. Further, the “% Max” value in assay [4] is 90%. For the same molecule, the O.D. in assay [4] worked out at 0.666 OD450. Moreover, the “2* OD” value in assay [5] is 2.28 OD450. Besides, in assay [8], the “Binding to SLPI (titre of supernatant)” value is over 64 reciprocal dilution.

B2: 9G12 (antibody, human IgG2, V domains shown)
VH: B1 VH with T31G, T49A, D54N, R56N, N57D, K58N, A61T, V70I, L114M
VL: B1 VL with V88I, A89G, Y90V, M94L
notes: Fully human, XenoMouse XMG2; also called #36; Cur12.1 PL09 G12
On to B2, for which the OD in assay [1] came to 0.98 OD450; in assay [3], 2.19 OD450; in assay [6], 0.6 OD450; in assay [7], 2.25 OD450. Besides, the Kd in assay [2] was determined as 0.053 nM. Further, the “% Max” value in assay [4] amounted to 61%. Also, the O.D. in assay [4] came out at 0.452 OD450. Further, the “2* OD” value in assay [5] is 1.97 OD450. Besides, the “Binding to SLPI (titre of supernatant)” value in assay [8] is over 64 reciprocal dilution.

B3: 35F1 (antibody, human IgG2, V domains shown)
VH: QVQLQESGPGLVKPSQTLSLTCTVSGGSIKSGDYYWSWVRQLPGKGLEWIGYIYYSGSTYYNPSLKSRVTISIDTSKNQFSLKLSSVTAADTAVYYCAREGSYYDSGGFDYWGQGTLVTVSS
VL: not shown
notes: Fully human, XenoMouse XMG2; also called #50; Cur12.1 PL35 F1
For B3, the OD in assay [1] was found to be 0.2 OD450; in assay [3] it was 0.3 OD450; in assay [6], 0.17 OD450; in assay [7], 0.37 OD450. The Kd in assay [2] came out at 0.14 nM. The “% Max” value in assay [4] was 47%. In addition, the O.D. in assay [4] stood at 0.35 OD450. The “2* OD” value in assay [5] came out at 0.41 OD450. Besides, the “Binding to SLPI (titre of supernatant)” value in assay [8] was over 64 reciprocal dilution.

B4: 42C1 (antibody, human IgG2, V domains shown)
VH: B3 VH with G27V, K30S, D33G, V39I, L42H, I73V, Y95F, S102E, S106E
VL: not shown
notes: Fully human, XenoMouse XMG2; also called #24; Cur12.1 PL42 C1
B4: the OD in assay [1] worked out at 3.42 OD450; in assay [3], 3.58 OD450; in assay [6], 3.01 OD450; in assay [7], 3.85 OD450. Besides, the Kd in assay [2] is 0.116 nM. In assay [4], the “% Max” value turned out to be 103%. The O.D. in assay [4] turned out to be 0.762 OD450. Moreover, the “2* OD” value in assay [5] amounted to 2.25 OD450. Besides, the “Binding to SLPI (titre of supernatant)” value in assay [8] is over 64 reciprocal dilution.
